T1: human BCMA (human, UniProt Q02223 1-184)
T1 construct: whole, on cells; also called hBCMA; TNFRSF17
T1 sequence (looked up): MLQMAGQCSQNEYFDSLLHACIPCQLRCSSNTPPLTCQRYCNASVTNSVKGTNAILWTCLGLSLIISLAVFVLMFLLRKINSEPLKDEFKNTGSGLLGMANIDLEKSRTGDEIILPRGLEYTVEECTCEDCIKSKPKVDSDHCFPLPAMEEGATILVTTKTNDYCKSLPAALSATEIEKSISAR


What was measured:
[1] = target: T2, human 4-1BB (tumor necrosis factor receptor superfamily member 9) (human, UniProt Q07011 24-255); assay: flow cytometry (FACS) on CHO-K1/hu 4-1BB cells
T2 construct: whole, on cells; also called hu 4-1BB; CD137
T2 sequence (Q07011 24-255): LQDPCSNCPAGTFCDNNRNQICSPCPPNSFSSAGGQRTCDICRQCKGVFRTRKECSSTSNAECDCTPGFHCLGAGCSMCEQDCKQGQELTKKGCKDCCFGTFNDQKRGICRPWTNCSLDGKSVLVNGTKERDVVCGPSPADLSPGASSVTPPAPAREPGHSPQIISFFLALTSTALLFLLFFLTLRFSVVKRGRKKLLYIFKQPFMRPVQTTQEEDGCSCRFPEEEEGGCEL

human BCMA [2] = target: T1, human BCMA; assay: FACS on NCI-H929 cells
cynomolgus monkey BCMA = target: T3, cynomolgus monkey BCMA (cynomolgus monkey, UniProt A0A2K5UD97 1-183); assay: FACS on HEK293T/cyno BCMA cells
T3 construct: whole, on cells; also called cyno BCMA
T3 sequence (A0A2K5UD97 entry or part of it): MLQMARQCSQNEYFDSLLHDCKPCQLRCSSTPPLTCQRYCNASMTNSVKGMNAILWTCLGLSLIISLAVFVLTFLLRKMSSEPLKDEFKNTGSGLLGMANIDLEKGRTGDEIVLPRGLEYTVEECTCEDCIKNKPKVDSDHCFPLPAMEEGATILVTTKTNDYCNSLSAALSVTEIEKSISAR

human BCMA [3] = target: T1, human BCMA; assay: FACS on HEK293T/hBCMA cells, Experiment 2

| EC50 (human BCMA [2]) [nM] | Maximum MFI (human BCMA [2]) | Maximum MFI (cynomolgus monkey BCMA) | Maximum MFI (human BCMA [3]) | EC50 (human BCMA [3]) [nM] | Binder | EC50 [1] [nM] | Maximum MFI [1] [MFI] |
| --- | --- | --- | --- | --- | --- | --- | --- |
| – | – | – | – | – | Anti-4-1BB heavy-chain antibody PR001838_G53A, hIgG1 (antibody, V domains shown, HCAb (heavy chain dimer, no light chain), hIgG1 Fc; also called PR004469) VH: EVQLLESGGGLVQPGGSLRLSCAASGFTFSNYAMSWFRQPPETGLKWVSSIDASGGDTYYADSVKGRFTISRDNSKNTLYLQMNSLRAEDTAVYYCAKEGSHGTDDSHYDVDVWGQGTTVTVSS | 1.29 | 109000 |
| 4.11 | 4190 | 26600 | 22100 | – | PR002950 (bispecific antibody, human IgG1, lambda, L234A L235A) light: QAVVTQEPSLTVSPGGTVTLTCRSSTGAVTTSNYANWVQQKPGQAPRGLIGGTNKRAPWTPARFSGSLLGDKAALTLLGAQPEDEAEYFCALWYSNLWVFGGGTKLTVLGQPKAAPSVTLFPPSSEELQANKATLVCLISDFYPGAVTVAWKADSSPVKAGVETTTPSKQSNNKYAASSYLSLTPEQWKSHRSYSCQVTHEGSTVEKTVAPTECS heavy: not shown EVQLVETGGGLIQPGGSLRLSCAASGFTVSDNYMTWVRQAPGKGLEWVSVIFSGGNTYYADSVKGRFTISRDNAKNTLYLQMNSLRAEDTALYYCARRNYDDTRGTDVFDIWGQGTMVTVSSGGGGSEVQLVETGGGLIQPGGSLRLSCAASGFTVSDNYMTWVRQAPGKGLEWVSVIFSGGNTYYADSVKGRFTISRDNAKNTLYLQMNSLRAEDTALYYCARRNYDDTRGTDVFDIWGQGTMVTVSSASEPKSSDKTHTCPPCPAPEAAGGPSVFLFPPKPKDTLMISRTPEVTCVVVDVSHEDPEVKFNWYVDGVEVHNAKTKPREEQYNSTYRVVSVLTVLHQDWLNGKEYKCKVSNKALPAPIEKTISKAKGQPREPQVCTLPPSREEMTKNQVSLSCAVKGFYPSDIAVEWESNGQPENNYKTTPPVLDSDGSFFLVSKLTVDKSRWQQGNVFSCSVMHEALHNHYTQKSLSLSPGK | – | – |
| 1.94 | 3730 | 8190 | 12600 | 0.791 | PR002898 (bispecific antibody, human IgG1, lambda, L234A L235A) light: QAVVTQEPSLTVSPGGTVTLTCRSSTGAVTTSNYANWVQQKPGQAPRGLIGGTNKRAPWTPARFSGSLLGDKAALTLLGAQPEDEAEYFCALWYSNLWVFGGGTKLTVLGQPKAAPSVTLFPPSSEELQANKATLVCLISDFYPGAVTVAWKADSSPVKAGVETTTPSKQSNNKYAASSYLSLTPEQWKSHRSYSCQVTHEGSTVEKTVAPTECS heavy: not shown EVQLVETGGGLIQPGGSLRLSCAASGFTVSDNYMTWVRQAPGKGLEWVSVIFSGGNTYYADSVKGRFTISRDNAKNTLYLQMNSLRAEDTALYYCARRNYDDTRGTDVFDIWGQGTMVTVSSGSEVQLVETGGGLIQPGGSLRLSCAASGFTVSDNYMTWVRQAPGKGLEWVSVIFSGGNTYYADSVKGRFTISRDNAKNTLYLQMNSLRAEDTALYYCARRNYDDTRGTDVFDIWGQGTMVTVSSASEPKSSDKTHTCPPCPAPEAAGGPSVFLFPPKPKDTLMISRTPEVTCVVVDVSHEDPEVKFNWYVDGVEVHNAKTKPREEQYNSTYRVVSVLTVLHQDWLNGKEYKCKVSNKALPAPIEKTISKAKGQPREPQVCTLPPSREEMTKNQVSLSCAVKGFYPSDIAVEWESNGQPENNYKTTPPVLDSDGSFFLVSKLTVDKSRWQQGNVFSCSVMHEALHNHYTQKSLSLSPGK | – | – |
| 2.32 | 4180 | 11000 | 14700 | 0.654 | PR002901 (bispecific antibody, human IgG1, lambda, L234A L235A) light: QAVVTQEPSLTVSPGGTVTLTCRSSTGAVTTSNYANWVQQKPGQAPRGLIGGTNKRAPWTPARFSGSLLGDKAALTLLGAQPEDEAEYFCALWYSNLWVFGGGTKLTVLGQPKAAPSVTLFPPSSEELQANKATLVCLISDFYPGAVTVAWKADSSPVKAGVETTTPSKQSNNKYAASSYLSLTPEQWKSHRSYSCQVTHEGSTVEKTVAPTECS heavy: not shown EVQLVETGGGLIQPGGSLRLSCAASGFTVSDNYMTWVRQAPGKGLEWVSVIFSGGNTYYADSVKGRFTISRDNAKNTLYLQMNSLRAEDTALYYCARRNYDDTRGTDVFDIWGQGTMVTVSSGSGSEVQLVETGGGLIQPGGSLRLSCAASGFTVSDNYMTWVRQAPGKGLEWVSVIFSGGNTYYADSVKGRFTISRDNAKNTLYLQMNSLRAEDTALYYCARRNYDDTRGTDVFDIWGQGTMVTVSSASEPKSSDKTHTCPPCPAPEAAGGPSVFLFPPKPKDTLMISRTPEVTCVVVDVSHEDPEVKFNWYVDGVEVHNAKTKPREEQYNSTYRVVSVLTVLHQDWLNGKEYKCKVSNKALPAPIEKTISKAKGQPREPQVCTLPPSREEMTKNQVSLSCAVKGFYPSDIAVEWESNGQPENNYKTTPPVLDSDGSFFLVSKLTVDKSRWQQGNVFSCSVMHEALHNHYTQKSLSLSPGK | – | – |
| 4.3 | 4210 | 30600 | 23900 | – | PR002959 (bispecific antibody, human IgG1, lambda, L234A L235A) light: QAVVTQEPSLTVSPGGTVTLTCRSSTGAVTTSNYANWVQQKPGQAPRGLIGGTNKRAPWTPARFSGSLLGDKAALTLLGAQPEDEAEYFCALWYSNLWVFGGGTKLTVLGQPKAAPSVTLFPPSSEELQANKATLVCLISDFYPGAVTVAWKADSSPVKAGVETTTPSKQSNNKYAASSYLSLTPEQWKSHRSYSCQVTHEGSTVEKTVAPTECS heavy: not shown EVQLVETGGGLIQPGGSLRLSCAASGFTVSDNYMTWVRQAPGKGLEWVSVIFSGGNTYYADSVKGRFTISRDNAKNTLYLQMNSLRAEDTALYYCARRNYDDTRGTDVFDIWGQGTMVTVSSGSGSEVQLVETGGGLIQPGGSLRLSCAASGFTVSDNYMTWVRQAPGKGLEWVSVIFSGGNTYYADSVKGRFTISRDNAKNTLYLQMNSLRAEDTALYYCARRNYDDTRGTDVFDIWGQGTMVTVSSASEPKSSDKTHTCPPCPAPEAAGGPSVFLFPPKPKDTLMISRTPEVTCVVVDVSHEDPEVKFNWYVDGVEVHNAKTKPREEQYNSTYRVVSVLTVLHQDWLNGKEYKCKVSNKALPAPIEKTISKAKGQPREPQVCTLPPSREEMTKNQVSLSCAVKGFYPSDIAVEWESNGQPENNYKTTPPVLDSDGSFFLVSKLTVDKSRWQQGNVFSCSVMHEALHNHYTQKSLSLSPGK | – | – |
| 3.95 | 3570 | 16200 | 17600 | – | PR002956 (bispecific antibody, human IgG1, lambda, L234A L235A) light: QAVVTQEPSLTVSPGGTVTLTCRSSTGAVTTSNYANWVQQKPGQAPRGLIGGTNKRAPWTPARFSGSLLGDKAALTLLGAQPEDEAEYFCALWYSNLWVFGGGTKLTVLGQPKAAPSVTLFPPSSEELQANKATLVCLISDFYPGAVTVAWKADSSPVKAGVETTTPSKQSNNKYAASSYLSLTPEQWKSHRSYSCQVTHEGSTVEKTVAPTECS heavy: not shown EVQLVETGGGLIQPGGSLRLSCAASGFTVSDNYMTWVRQAPGKGLEWVSVIFSGGNTYYADSVKGRFTISRDNAKNTLYLQMNSLRAEDTALYYCARRNYDDTRGTDVFDIWGQGTMVTVSSGSEVQLVETGGGLIQPGGSLRLSCAASGFTVSDNYMTWVRQAPGKGLEWVSVIFSGGNTYYADSVKGRFTISRDNAKNTLYLQMNSLRAEDTALYYCARRNYDDTRGTDVFDIWGQGTMVTVSSASEPKSSDKTHTCPPCPAPEAAGGPSVFLFPPKPKDTLMISRTPEVTCVVVDVSHEDPEVKFNWYVDGVEVHNAKTKPREEQYNSTYRVVSVLTVLHQDWLNGKEYKCKVSNKALPAPIEKTISKAKGQPREPQVCTLPPSREEMTKNQVSLSCAVKGFYPSDIAVEWESNGQPENNYKTTPPVLDSDGSFFLVSKLTVDKSRWQQGNVFSCSVMHEALHNHYTQKSLSLSPGK | – | – |
| – | – | – | – | – | Anti-4-1BB heavy-chain antibody 1016P0010B11, hIgG1 (antibody, V domains shown, HCAb (heavy chain dimer, no light chain), hIgG1 Fc; also called PR001758) VH: EVQLLESGGGLVQLGGSLRLSCAASGFTFSRYAMTWVRQAPEKGLEWVSSISGSGDDTYYGDSVKGRFTISRDNSQNTVYLQMNSLRAEDTAVYFCAKEKAGTTGDYYYNVDVWGQGTTVTVSS | 0.212 | 1640 |
| – | – | – | – | – | Anti-4-1BB heavy-chain antibody 1016P0042C5, hIgG1 (antibody, V domains shown, HCAb (heavy chain dimer, no light chain), hIgG1 Fc; also called PR001771) VH: EVQLLESGGGLVQPGGSLRLSCAASGFTFSNYAMTWVRQPPGKGLEWVSSISGSGGSTYYADSVKGRFTISRDNSKNTLYLQMNSLRAEDTAVYYCAKEGTGTTSDYYYNVDVWGQGTTVTVSS | 0.532 | 1720 |
| – | – | – | – | – | Anti-4-1BB heavy-chain antibody 1016P0037D2, hIgG1 (antibody, V domains shown, HCAb (heavy chain dimer, no light chain), hIgG1 Fc; also called PR001840) VH: EVQLVESGGGLVQPGGSLRLSCAASGFTFSSYWMHWVRQAPGKGLVWVSRINSDGSSTSYADSVQGRFTISRDNAKNTLYLQMNSLRAEDTAVYYCVRKGSSSYYHYSIEDDWGQGTLVTVSS | 0.43 | 1790 |
| – | – | – | – | – | Anti-4-1BB heavy-chain antibody 1016P0020G4, hIgG1 (antibody, V domains shown, HCAb (heavy chain dimer, no light chain), hIgG1 Fc; also called PR001836) VH: EVQLLESGGGLVQPGGSLRLSCAASGFIFSNFAMTWVRQPPEKGLKWVSSINGSGFNTYYTDSVKGRFTISRDNSRNTLYLQMNRLTAEDTAVYFCAKEGSSETDDHYYNVDVWGQGTTVTVSS | 0.28 | 1830 |

Reference: patent US20230322953A1 (HARBOUR BIOMED SHANGHAI, published 2023)
